Reference: patent US20120316071A1 (published 2012)
Blank lines part the entries; values can stand above or below the binder they belong to.

Columns and labels:
[1] = molecular target: T1, rHuman EGF R/Fc Chimera, CF (R&D Systems Cat#344-ER) (human, UniProt P00533 25-645); test: MSD multispot ECL, antigen spotted, Fab 0.6 nM; blank spot 226
T1 construct: Bought reagent; also called epidermal growth factor receptor

[2] = molecular target: T2, rHuman Erythropoietin R/Fc Chimera, CF (R&D Systems Cat#963-ER) (human, UniProt P19235 25-250); test: as above
T2 construct: Bought reagent; also called EPO R/Fc; Epo R
T2 sequence (looked up): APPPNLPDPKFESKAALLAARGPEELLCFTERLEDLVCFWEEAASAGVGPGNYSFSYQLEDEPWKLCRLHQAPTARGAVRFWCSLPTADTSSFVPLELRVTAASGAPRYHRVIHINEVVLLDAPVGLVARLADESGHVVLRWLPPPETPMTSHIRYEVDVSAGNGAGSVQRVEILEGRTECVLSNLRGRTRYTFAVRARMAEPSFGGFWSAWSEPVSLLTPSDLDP

[3] = molecular target: T3, rHuman IGF-1 sR, (IGF-1 sR), CF (R&D Systems Cat#391-GR) (human, UniProt P08069 31-932); test: as above
T3 construct: Bought soluble receptor; also called insulin-like growth factor-1 soluble receptor

[4] = molecular target: T4, rHuman Notch-1/Fc Chimera, CF (R&D Systems Cat#3647-TK) (human, UniProt P46531 19-526); test: as above
T4 construct: Bought reagent

[5] = molecular target: T5, rHuman HGF R/c-MET/Fc Chimera, CF (R&D Systems Cat#358-MT/CF) (human, UniProt P08581 25-932); test: as above
T5 construct: Bought reagent; also called HGF R/Fc; hepatocyte growth factor receptor

[6] = molecular target: T6, Recombinant Human DLL4 (R&D Systems Cat#1506-D4/CF) (human, UniProt Q9NR61 27-524); test: as above
T6 construct: Bought recombinant protein; also called rHuman DLL4; delta-like protein 4

[7] = molecular target: T7, rHuman IGF-1 sR, CF (R&D Systems Cat#391-GR) (human, UniProt P08069 31-932); test: Multispot ECL (MSD), antigen spotted on plate, Fab 7.8 nM; blank spot 316
T7 construct: Bought recombinant soluble receptor; also called insulin-like growth factor-1 soluble receptor

[8] = molecular target: T8, rHuman Notch-1/Fc Chimera, CF (R&D Systems Cat#3647-TK) (human, UniProt P46531 19-526); test: as above
T8 construct: Bought recombinant protein; Fc part of the bought chimera not given

[9] = molecular target: T9, rHuman Erythropoietin R/Fc Chimera, CF (R&D Systems Cat#963-ER) (human, UniProt P19235 25-250); test: as above
T9 construct: Bought recombinant protein; also called EPO R/Fc; Epo R; Fc part of the bought chimera not given
T9 sequence (looked up): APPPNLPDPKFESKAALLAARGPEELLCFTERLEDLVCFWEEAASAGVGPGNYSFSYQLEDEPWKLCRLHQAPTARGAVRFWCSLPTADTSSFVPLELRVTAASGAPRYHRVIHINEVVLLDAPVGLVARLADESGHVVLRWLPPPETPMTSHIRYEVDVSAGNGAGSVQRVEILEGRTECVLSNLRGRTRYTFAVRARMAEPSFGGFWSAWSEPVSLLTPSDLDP

[10] = molecular target: T10, Recombinant Human DLL4 (R&D Systems Cat#1506-D4/CF) (human, UniProt Q9NR61 27-524); test: as above
T10 construct: Bought recombinant protein; also called rHuman DLL4; delta-like protein 4

[11] = molecular target: T11, rHuman CD44/Fc Chimera, CF (R&D Systems Cat#3660-CD) (human, UniProt P16070 21-220); test: ECL multispot (MSD) assay, spotted antigen; Fab 0.20 (head prints uM)
T11 construct: Bought recombinant protein; Fc part of the bought chimera not given

[12] = molecular target: T12, rHuman P-Cadherin/Fc Chimera, CF (R&D Systems Cat#861-PC) (human, UniProt P22223 108-654); test: as above
T12 construct: Bought recombinant protein; Fc part of the bought chimera not given

[13] = molecular target: T13, Recombinant Human DLL4 (R&D Systems Cat#1506-D4/CF) (human, UniProt Q9NR61 27-524); test: as above
T13 construct: Bought recombinant protein; also called delta-like protein 4

[14] = molecular target: T14, rHuman Notch-1/Fc Chimera, CF (R&D Systems Cat#3647-TK) (human, UniProt P46531 19-526); test: as above
T14 construct: Bought recombinant protein; Fc part of the bought chimera not given

[15] = molecular target: T15, rHuman HGF R/c-MET/Fc Chimera, CF (R&D Systems Cat#358-MT/CF) (human, UniProt P08581 25-932); test: as above
T15 construct: Bought recombinant protein; also called HGF R/Fc; Fc part of the bought chimera not given

[16] = molecular target: T16, rHuman IGF-1 sR, CF (R&D Systems Cat#391-GR) (human, UniProt P08069 31-932); test: as above
T16 construct: Bought soluble receptor; The column head prints only 'IGF-1'; also called insulin-like growth factor-1 soluble receptor

[17] = molecular target: T17, rHuman EGF R/Fc Chimera, CF (R&D Systems Cat#344-ER) (human, UniProt P00533 25-645); test: as above
T17 construct: Bought recombinant protein; Fc part of the bought chimera not given

[18] = molecular target: T18, rHuman ErbB2/Fc Chimera, CF (R&D Systems Cat#1129-ER) (human, UniProt P04626 23-652); test: as above
T18 construct: Bought recombinant protein; Fc part of the bought chimera not given

[19] = molecular target: T19, rHuman Erythropoietin R/Fc Chimera, CF (R&D Systems Cat#963-ER) (human, UniProt P19235 25-250); test: as above
T19 construct: Bought recombinant protein; also called EPO R; EPO R/Fc; Fc part of the bought chimera not given
T19 sequence (looked up): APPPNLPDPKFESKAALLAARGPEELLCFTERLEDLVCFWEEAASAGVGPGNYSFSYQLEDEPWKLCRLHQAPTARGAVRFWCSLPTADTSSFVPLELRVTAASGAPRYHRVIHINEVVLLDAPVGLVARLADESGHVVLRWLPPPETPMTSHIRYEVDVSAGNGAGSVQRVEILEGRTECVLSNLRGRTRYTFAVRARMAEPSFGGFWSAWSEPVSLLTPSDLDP

[20] = molecular target: T20, Recombinant Human DLL4 (R&D Systems Cat#1506-D4/CF) (human, UniProt Q9NR61 27-524); test: MSD Multispot ECL, antigen spotted on plate, Fab at 30 nM; blank spot 213
T20 construct: Bought recombinant protein; also called rHuman DLL4; delta-like protein 4

ECL signal [1]: 309 ECL signal
ECL signal [2]: 337 ECL signal
ECL signal [3]: 313 ECL signal
ECL signal [4]: 337 ECL signal
ECL signal [5]: 256 ECL signal
ECL signal [6]: 508 ECL signal
B1: Fab VH1-46_IGHD6-6*01_IGHJ1*01 & L6_IGKJ1*01 (Fab, V domains shown)
VH: QVQLVQSGAEVKKPGASVKVSCKASGYTFTSYYMHWVRQAPGQGLEWMGIINPSGGSTSYAQKFQGRVTMTRDTSTSTVYMELSSLRSEDTAVYYCAREEYSSSSAEYFQHWGQGTLVTVSS
VL: not shown
notes: Only variable domains are tied to the molecule; Tested as a Fab made in E. coli: heavy chain from Plasmid A (CH1 constant region, His6 and Flag tags), kappa light chain from Plasmid C (kappa CL); also called parent Hit Fab against DLL4; VH1-46_IGHD6-6*01_IGHJ1*01 & L6_IGKJ1*01 (parental)

ECL signal [7]: 353
ECL signal [8]: 486
ECL signal [9]: 6760
ECL signal [10]: 407
B2: Fab VH1-46_IGHD6-13*01_IGHJ4*01 & B3_IGKJ1*01 (Fab, V domains shown)
VH: QVQLVQSGAEVKKPGASVKVSCKASGYTFTSYYMHWVRQAPGQGLEWMGIINPSGGSTSYAQKFQGRVTMTRDTSTSTVYMELSSLRSEDTAVYYCAREGYSSSWYDYFDYWGQGTLVTVSS
VL: not shown
notes: Germline Fab made in E. coli; VH was cloned into Plasmid A (CH1, His6 and Flag tags) and the kappa VL into Plasmid C (kappa CL)

ECL signal/noise ratio [11]: 1.3
ECL signal/noise ratio [12]: 1.7
ECL signal/noise ratio [13]: 3
ECL signal/noise ratio [14]: 1.9
ECL signal/noise ratio [15]: 2.4
ECL signal/noise ratio [16]: 1.9
ECL signal/noise ratio [17]: 1.5
ECL signal/noise ratio [18]: 2.5
ECL signal/noise ratio [19]: 1.7
B3: Fab VH5-51_IGHD5-18*01>3_IGHJ4*01 G100K/G104T & V3-4_IGLJ1*01 (Fab, V domains shown)
VH: EVQLVQSGAEVKKPGESLKISCKGSGYSFTSYWIGWVRQMPGKGLEWMGIIYPGDSDTRYSPSFQGQVTISADKSISTAYLQWSSLKASDTAMYYCARRKYSYTYDYFDYWGQGTLVTVSS
VL: QTVVTQEPSFSVSPGGTVTLTCGLSSGSVSTSYYPSWYQQTPGQAPRTLIYSTNTRSSGVPDRFSGSILGNKAALTITGAQADDESDYYCVLYMGSGISYVFGTGTKVTVL
notes: Tested as a Fab; The constant parts are the same as for the parent Fab (CH1 with His6/Flag tags, lambda CL); also called KT double mutant; H:KT

ECL signal [20]: 736
B4: Fab VH6-1_IGHD3-3*01_IGHJ4*01 & V4-3_IGLJ4*01 (Fab, V domains shown)
VH: QVQLQQSGPGLVKPSQTLSLTCAISGDSVSSNSAAWNWIRQSPSRGLEWLGRTYYRSKWYNDYAVSVKSRITINPDTSKNQFSLQLNSVTPEDTAVYYCAREYYDFWSGYYTDYFDYWGQGTLVTVSS
VL: QPVLTQPTSLSASPGASARLTCTLRSGINLGSYRIFWYQQKPESPPRYLLSYYSDSSKHQGSGVPSRFSGSKDASSNAGILVISGLQSEDEADYYCMIWHSSASFVFGGGTQLIIL
notes: Tested as a purified germline Fab made in E. coli; The VH was cloned into plasmid A (CH1 constant region, His6 and Flag tags) and the lambda VL into plasmid E (lambda CL)
